Laboratory results: article PMC9461283

Molecular target: SARS-CoV-2 S receptor-binding domain (RBD) (SARS-CoV-2 (isolate Wuhan-Hu-1)) (UniProt P0DTC2)
Test: SPR

Substance | Kd
cynomolgus macaque (Macaca fascicularis) ACE2 ectodomain (ectoACE2), N-terminal 367 aa (domain or fragment) | 69.2 nM
rhesus macaca (Macaca mulatta) ACE2 ectodomain (ectoACE2), N-terminal 367 aa (from UniProt F7AH40 1-367) (domain or fragment) | 68 nM
